Here are results for one molecule from patent US7547676B2, “Antagonist peptides to the C5A chemotactic function of vitamin D binding protein” (The Research Foundation of State University of New York, priority 2004, dated 2009).

The target of experiment [1] is T1, DBP immobilized on a Biacore sensor chip (Homo sapiens, UniProt P02774).
T1 construct: DBP was purified from human plasma; purchased Biodesign International; host or cells: human plasma
T1 sequence (P02774 17-474): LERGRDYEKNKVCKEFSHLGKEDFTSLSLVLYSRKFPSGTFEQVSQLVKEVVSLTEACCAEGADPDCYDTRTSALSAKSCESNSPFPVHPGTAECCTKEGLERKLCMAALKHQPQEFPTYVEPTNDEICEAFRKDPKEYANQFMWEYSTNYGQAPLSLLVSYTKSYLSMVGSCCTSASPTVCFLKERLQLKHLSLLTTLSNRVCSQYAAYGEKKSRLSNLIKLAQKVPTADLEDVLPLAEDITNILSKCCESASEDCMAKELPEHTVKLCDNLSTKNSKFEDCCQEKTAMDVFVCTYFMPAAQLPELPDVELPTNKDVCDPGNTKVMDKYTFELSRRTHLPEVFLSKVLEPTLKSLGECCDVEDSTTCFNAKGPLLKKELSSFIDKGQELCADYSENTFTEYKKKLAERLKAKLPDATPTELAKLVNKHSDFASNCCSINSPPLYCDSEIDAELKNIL
The experiment in a line: Biacore surface plasmon resonance: U937-C5aR cell binding to immobilized DBP. The protocol:
FIG. 8A and FIG. 8B show immobilization of DBP on a Biacore surface plasmon resonance sensor chip CM5. Purified DBP in HBSS (5 μM) was coupled to the sensor chip. Coupling was detected using 5 μg/ml affinity-purified anti-DBP (FIG. 8A). Different concentrations of U937-C5aR cells in HBSS were injected into the flow cell and allowed to interact with the immobilized DBP (FIG. 8B). Data is expressed as response units of the molecular interaction on the sensor chip.
FIGS. 9A to 9C show the effect of pretreating U937-C5aR cells with purified DBP or DBP peptides on the binding to DBP immobilized on a Biacore sensor chip. FIG. 9A: 10^6 cells/ml in HBSS were not treated (control), pretreated with 50 nM DBP, 0.5 μM DBP peptide 1 (p1) or DBP peptide 2 (p2). FIG. 9B: DBP peptide 1 immobilized to the Biacore sensor chip. FIG. 9C: DBP peptide 2 immobilized to the Biacore sensor chip. Data is expressed as response units of the molecular interaction on the sensor chip.
U937-C5aR cells (10^6 cells/ml in HBSS) were pretreated with a 25 μg/ml control IgG, 50 nM purified DBP or 25 μg/ml affinity-purified anti-CD44 and then allowed to interact with DBP immobilized on a Biacore sensor chip. Data is expressed as response units of the molecular interaction on the sensor chip.
According to the present invention, the interaction of an immobilized ligand, e.g., immobilized DBP, binding to cells can be measure by any established technology available in the art, e.g., by surface plasmon resonance (SPR) or Biacore technology. For example, in the present invention, the binding of U937-C5aR cells to immobilized DBP were examined by Biacore technology, the result of which is used to further determine if the DBP peptides generated in the present invention can alter the interaction U937-C5aR cells and DBP. […] To investigate further the effect of DBP peptides on cell binding, peptide 1 (FIG. 9B) and peptide 2 (FIG. 9C) were immobilized to Biacore sensor chips. […] Finally, the present invention also identifies that CD44 on the cell surface binds DBP and can, in part, mediate the C5a chemotactic cofactor effect of DBP (McVoy and Kew, J. Immunol. 175:4754, 2005). Therefore, using Biacore technology the present invention addresses the effect of blocking CD44 on U937-C5aR binding to immobilized DBP (FIG. 10). In the present invention, U937-C5aR cells were pretreated with either an irrelevant goat IgG (negative control), purified soluble DBP (positive control) or affinity-purified goat anti-CD44. […] These Biacore experiments have provided a powerful quantitative tool to investigate the cell binding region on DBP and examine the effects on DBP peptides on this interaction.

In experiment [2] the test system is differentiated HL-60 cells. The experiment in a line: Ligand-induced calcium mobilization (Fluo-3 AM) in differentiated HL-60 cells. It counts as cell-based, Human. The conditions noted are these: differentiated HL-60 cells incubated 30 min with 50 nM of indicated DBP, then C5a. Here is the method: Cells and cell culture: Human promyelocytic cell line HL-60 was obtained from ATCC (Rockville, Md.) and cultured in RPMI 1640 medium supplemented with 10% FBS. Differentiation of HL-60 cells was initiated with 250 μM Bt2cAMP for 48 hours.
Ligand-induced calcium mobilization. Calcium mobilization studies were performed using the Fluo-3 AM probe as described previously (see Merritt, J. E. et al., Biochem. J. 269, 513-519 (1990)). Differentiated HL-60 cells (1×10^7 cells/ml) were resuspended in HBSS-1% BSA containing 2 μM Fluo-3 AM (Molecular Probes, Eugene, Oreg.) and incubated at 37° C. for 40 minutes. Cells incubated without the dye were used as a control to measure autofluorescence (Fmin). Following the dye uptake, cells were washed twice then suspended at 5×10^6 cells/ml in HBSS containing 1% BSA. Half of the cell suspension was treated with 50 nM DBP for 30 min at room temperature, the other half served as the untreated control. For each measurement, 400 μl of cell suspension (with or without DBP) was added to a cuvette and stimulated with various concentrations of purified C5a at room temperature (22-24° C.). Fluorescence was then measured immediately using a Perkin-Elmer LS-5 fluorometer at 505 nm excitation, 526 nm emission for Fluo-3 AM. Fmax was measured by treating labeled cells with 60 μM digitonin. Intracellular free calcium concentrations were calculated using the following formula: (Ca^2+)=Kd (F−Fmin)/(Fmax−F), where Kd=325 nM for Fluo-3 according to manufacturer (Molecular Probes).

B1: DBP: Purified human DBP obtained from Biodesign International (protein)
chain: T1 sequence (P02774 17-474)
Consider B1, for which the “inhibition of U937-C5aR cell binding to the DBP chip” value in experiment [1] (FIG. 9A, 10^6 cells/ml pretreated with 50 nM DBP or 0.5 μM DBP peptide) is “almost completely blocked”. Moreover, in experiment [1] (FIG. 10, cells pretreated with 50 nM purified DBP or 25 μg/ml anti-CD44), the “inhibition of U937-C5aR binding to immobilized DBP” value is recorded as “completely blocks binding”. In addition, the “enhancement of intracellular Ca2+ flux in response to C5a” value in experiment [2] is “significantly enhanced intracellular calcium influx”; in experiment [2] (listed as natural DBP) it was “significantly enhanced”.
